For one assay, the target named is T1, human αvβ3 (Homo sapiens, UniProt P05106+P06756).
T1 construct: tissue Chemicon International Inc. (alternative source, catalogue number not given); host or cells: placenta
The assay can be described thus: Solid phase binding assay (Vitronectin-Ru, integrin coated paramagnetic beads). To be noted: FIGS. 4A and 4B. As for the experimental part: (§1) Ruthenylation of Vitronectin and Fibrinogen. Purified human vitronectin or purified human fibrinogen (Calbiochem) was dialyzed into 50 mM borate, 100 mM NaCl pH 8.0. A stock solution of ruthenium (II) tris bipyridine N-hydroxysuccinimide ester (Origen TAG® Ester, Igen Inc. Gaithersburg, Md.) was freshly prepared by adding 50 μL DMSO to 150 μg of the Origen TAG-NHS ester. Fifty microliters of the Origen TAG-NHS ester was added to one fifth molar ratio of the matrix protein. After one hour incubation at […], the reaction was quench by the addition of 50 μL of 2 M glycine. Unincorporated ruthenium and excess glycine were removed by dialysis into PBS, 0.05% NaN3. Protein concentrations were determined using Micro-BCA (Pierce, Rockford, Ill.). Origen TAG incorporation was assessed at 455 nm (e=13,700 M^−1 cm^−1). Vitronectin-Ru and Fibrinogen-Ru were stored at −70° C. until needed. […]
(§2) Solid Phase Binding Assay. […] The assay mixture was incubated at 25° C. for two hours with agitation and subsequently read on an Origen Analyzer® (Igen Inc. Gaithersburg, Md.) Non-specific binding was determined using 1 μM Vitronectin, 1 μM Fibrinogen or 5 mM EDTA. The data was prepared using a four-parameter fit by the Levenburg Marquardt algorithm (XLfit® ID Business Solutions.) Ki values were calculated using the equation of Cheng and Prusoff (1973) Biochem. Pharmacology 22: 3099-3108.

The target of another assay is T2, GPIIb/IIIa (Homo sapiens, UniProt P05106+P08514).
T2 construct: The washed platelets were lysed in, 20 mM Tris-HCl pH 7.4, 140 mM NaCl, 2 mM CaCl2, 1 mM pefabloc, 3% octylglucoside; from tissue; host or cells: outdated platelets
The assay can be described thus: Inhibition of ruthenium-labeled human fibrinogen (fibrinogen-ru) binding to GPIIb/IIIa, solid phase binding assay. The following applies: FIGS. 5A and 5B. As for the experimental part:
as §1, §2

In a further assay the test system is HT1080 cells. Put plainly: Effect on the growth of HT1080 cells. The assay is classed as cell-based, human. Here is the method:
Laminin activity assay: Apoptosis of HT-1080 human fibrosarcoma cells. HT-1080 cells from a human fibrosarcoma are cultured in DMEM supplemented with 10% fetal bovine serum, 100 μg/ml streptomycin and 100 units/ml penicillin. The culture is started at a density of 5×10^4 cells per plate. The Fc-peptides (Fc-YIGSR, Fc-(YIGSR)2, YIGSR-Fc, or (YIGSR)2-Fc)) at various concentrations are added to each plate, and after 16 hours the cells are harvested for evaluation of apoptosis with crystal violet solution at 560 nm absorbance. The DNA fragmentation analysis is also carried out to assess the degree of apoptosis in a 1.5% agarose gel and visualized by ethidium bromide staining.
Two additional laminin peptides, (YIGSR)3 and (YIGSR)5 from Table 6 herein, were fused to human IgG1. Those fusion peptides were designated as laminin-3 ((YIGSR)3-Fc) and laminin-5 ((YIGSR)5-Fc). The purified peptide-Fc fusions were examined for their effect on the growth of HT1080 cells as described in Example 1. […] A 50-fold enhancement was seen after it was fused to human IgG1.

T1 sequence (P06756 31-889 limits assumed): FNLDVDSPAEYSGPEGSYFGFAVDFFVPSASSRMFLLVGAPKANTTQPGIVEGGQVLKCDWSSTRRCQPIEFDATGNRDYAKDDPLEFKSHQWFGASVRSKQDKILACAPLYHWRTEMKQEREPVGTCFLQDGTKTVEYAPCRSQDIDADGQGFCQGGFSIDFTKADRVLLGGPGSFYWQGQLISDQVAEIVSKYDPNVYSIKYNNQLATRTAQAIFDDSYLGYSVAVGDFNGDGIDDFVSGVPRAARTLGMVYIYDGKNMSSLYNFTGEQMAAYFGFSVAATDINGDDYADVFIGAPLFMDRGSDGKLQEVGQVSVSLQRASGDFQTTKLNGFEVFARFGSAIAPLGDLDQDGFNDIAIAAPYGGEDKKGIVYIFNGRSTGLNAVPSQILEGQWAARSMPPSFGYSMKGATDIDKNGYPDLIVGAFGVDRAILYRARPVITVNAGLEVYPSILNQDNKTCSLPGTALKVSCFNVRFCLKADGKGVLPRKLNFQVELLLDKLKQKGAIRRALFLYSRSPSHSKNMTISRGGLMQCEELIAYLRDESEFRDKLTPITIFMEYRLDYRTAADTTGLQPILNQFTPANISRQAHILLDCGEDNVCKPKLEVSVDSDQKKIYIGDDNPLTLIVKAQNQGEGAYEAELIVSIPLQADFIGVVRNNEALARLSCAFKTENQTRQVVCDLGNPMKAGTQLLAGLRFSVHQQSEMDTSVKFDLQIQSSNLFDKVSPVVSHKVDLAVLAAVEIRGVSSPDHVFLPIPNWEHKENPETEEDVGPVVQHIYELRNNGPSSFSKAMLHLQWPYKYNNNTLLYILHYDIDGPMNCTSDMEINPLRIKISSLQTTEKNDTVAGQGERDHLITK
T1 sequence (P06756 891-1048 partner limits assumed): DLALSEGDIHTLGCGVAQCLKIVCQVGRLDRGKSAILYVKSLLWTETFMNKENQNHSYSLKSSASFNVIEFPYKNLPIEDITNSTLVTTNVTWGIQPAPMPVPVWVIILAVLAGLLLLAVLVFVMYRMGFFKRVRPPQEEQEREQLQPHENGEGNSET
T1 sequence (P05106 27-788): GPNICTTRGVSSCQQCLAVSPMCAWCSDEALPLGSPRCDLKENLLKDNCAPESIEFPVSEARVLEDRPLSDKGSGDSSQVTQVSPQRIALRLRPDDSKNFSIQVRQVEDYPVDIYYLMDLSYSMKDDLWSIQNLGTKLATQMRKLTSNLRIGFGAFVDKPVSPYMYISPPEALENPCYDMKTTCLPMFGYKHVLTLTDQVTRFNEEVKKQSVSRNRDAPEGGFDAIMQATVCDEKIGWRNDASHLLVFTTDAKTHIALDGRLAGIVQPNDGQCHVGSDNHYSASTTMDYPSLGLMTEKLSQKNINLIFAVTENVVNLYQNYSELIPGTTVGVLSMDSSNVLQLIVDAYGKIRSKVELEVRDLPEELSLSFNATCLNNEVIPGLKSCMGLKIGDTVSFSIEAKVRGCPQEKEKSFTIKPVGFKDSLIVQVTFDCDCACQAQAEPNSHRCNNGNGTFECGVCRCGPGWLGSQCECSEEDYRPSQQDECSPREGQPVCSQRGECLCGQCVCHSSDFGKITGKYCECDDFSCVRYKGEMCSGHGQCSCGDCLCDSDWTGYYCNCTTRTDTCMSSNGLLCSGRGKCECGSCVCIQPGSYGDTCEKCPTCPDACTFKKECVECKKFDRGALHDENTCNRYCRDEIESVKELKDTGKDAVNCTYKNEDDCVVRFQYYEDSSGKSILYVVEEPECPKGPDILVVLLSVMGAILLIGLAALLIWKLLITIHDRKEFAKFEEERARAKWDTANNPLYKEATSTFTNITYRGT

With “Echistatin-Fc: echistatin fused via a 5 glycine linker to the C-terminus of the Fc portion of human IgG1 (SEQ ID NO: 109)”, in the assay with human αvβ3, the “binding to human αvβ3” value is on record as “binds with high affinity”. Further, the “inhibition of fibrinogen-ru binding to GPIIb/IIIa” value with GPIIb/IIIa was “inhibition”.
For YIGSRYIGSRYIGSR [(YIGSR)3], the IC100 in the assay with HT1080 cells is 2.9 µM.

(Values after patent publication US20020168363A1, “Integrin/adhesion antagonists” (Amgen Inc., priority 2000, published 2002).)
